Measured values published in paper PMC4957052 (The Journal of Biological Chemistry, 2016).

T1: M. musculus αE-catenin (M. musculus), P26231
T1 chain: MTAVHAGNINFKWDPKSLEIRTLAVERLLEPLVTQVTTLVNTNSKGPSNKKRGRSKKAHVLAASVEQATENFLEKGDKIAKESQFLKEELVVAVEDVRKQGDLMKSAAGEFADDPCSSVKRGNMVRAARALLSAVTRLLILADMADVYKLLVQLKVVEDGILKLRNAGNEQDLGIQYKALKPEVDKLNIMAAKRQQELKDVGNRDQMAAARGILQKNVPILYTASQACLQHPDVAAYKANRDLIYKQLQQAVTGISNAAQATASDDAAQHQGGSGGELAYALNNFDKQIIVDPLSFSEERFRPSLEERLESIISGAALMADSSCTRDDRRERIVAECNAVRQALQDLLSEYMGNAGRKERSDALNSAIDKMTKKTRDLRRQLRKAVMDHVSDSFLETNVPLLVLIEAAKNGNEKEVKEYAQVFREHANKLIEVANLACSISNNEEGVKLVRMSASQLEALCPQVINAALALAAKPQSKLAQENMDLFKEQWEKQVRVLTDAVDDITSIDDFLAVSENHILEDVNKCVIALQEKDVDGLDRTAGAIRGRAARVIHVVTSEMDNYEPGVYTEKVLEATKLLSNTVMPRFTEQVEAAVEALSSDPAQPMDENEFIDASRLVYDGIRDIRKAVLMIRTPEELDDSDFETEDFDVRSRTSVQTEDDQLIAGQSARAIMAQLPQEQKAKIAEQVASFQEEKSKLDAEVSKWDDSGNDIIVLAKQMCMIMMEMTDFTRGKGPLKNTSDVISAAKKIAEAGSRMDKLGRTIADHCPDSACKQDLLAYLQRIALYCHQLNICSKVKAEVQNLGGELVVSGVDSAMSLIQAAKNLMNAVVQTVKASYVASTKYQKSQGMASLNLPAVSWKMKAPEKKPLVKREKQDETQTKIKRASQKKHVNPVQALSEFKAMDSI

T2: mouse β-catenin (GST cleaved) (mouse, UniProt Q02248 1-781)
T2 construct: β-catenin, mouse; Probably the construct of m7 (full length) after TEV cleavage; source: E. coli BL21(DE3), purified (glutathione-agarose, TEV cleavage, Mono Q, S200 gel filtration)
T2 sequence (looked up): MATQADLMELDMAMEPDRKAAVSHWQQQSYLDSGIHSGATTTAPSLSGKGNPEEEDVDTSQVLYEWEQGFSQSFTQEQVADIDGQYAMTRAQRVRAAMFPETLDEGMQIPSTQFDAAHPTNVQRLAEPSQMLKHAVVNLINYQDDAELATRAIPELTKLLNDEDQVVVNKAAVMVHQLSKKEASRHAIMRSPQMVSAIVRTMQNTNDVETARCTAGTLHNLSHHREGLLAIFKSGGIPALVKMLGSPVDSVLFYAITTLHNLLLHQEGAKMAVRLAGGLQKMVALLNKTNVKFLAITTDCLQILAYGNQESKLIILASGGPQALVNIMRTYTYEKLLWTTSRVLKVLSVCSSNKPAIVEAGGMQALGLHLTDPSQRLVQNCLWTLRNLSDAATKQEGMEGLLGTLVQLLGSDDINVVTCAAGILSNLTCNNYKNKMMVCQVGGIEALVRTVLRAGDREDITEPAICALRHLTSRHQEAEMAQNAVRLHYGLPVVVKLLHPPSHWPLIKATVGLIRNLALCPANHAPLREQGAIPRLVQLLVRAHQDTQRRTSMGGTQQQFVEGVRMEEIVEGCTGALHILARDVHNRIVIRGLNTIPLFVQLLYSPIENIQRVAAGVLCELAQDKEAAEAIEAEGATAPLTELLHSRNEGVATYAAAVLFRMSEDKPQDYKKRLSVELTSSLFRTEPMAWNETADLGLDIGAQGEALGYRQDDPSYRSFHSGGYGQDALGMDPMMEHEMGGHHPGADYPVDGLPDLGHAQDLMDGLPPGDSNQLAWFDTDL


Experiments:
[1] = biological target: T1, M. musculus αE-catenin (M. musculus), …; experiment: SEC + other: sucrose density gradient centrifugation; analytical Superdex 200 at 4 °C in 20 mM Tris pH 8.0, 150 mM NaCl, 1 mM DTT, protein injected at 25-30 μM (25-50 μM in the results); 5-20% sucrose gradients, 200,000 x g 4 h 4 °C, protein loaded at ≥20 μM; molecular mass from Stokes radius and sedimentation coefficient; settings: remark: other sources report otherwise
[2] = biological target: T2, mouse β-catenin (GST cleaved); experiment: not stated; purified mouse β-catenin mixed with αT-catenin; data not shown; settings: both partners purified
[3] = biological target: the molecule itself; experiment: SEC + other: sucrose density gradient centrifugation; analytical Superdex 200 at 4 °C in 20 mM Tris pH 8.0, 150 mM NaCl, 1 mM DTT, protein injected at 25-30 μM (25-50 μM in the results); 5-20% sucrose gradients, 200,000 x g 4 h 4 °C, protein loaded at ≥20 μM; molecular mass from Stokes radius and sedimentation coefficient

Binder | stoichiometry N [3] | other results
M. musculus αE-catenin, P26231 1-906 (natural protein) MTAVHAGNINFKWDPKSLEIRTLAVERLLEPLVTQVTTLVNTNSKGPSNKKRGRSKKAHVLAASVEQATENFLEKGDKIAKESQFLKEELVVAVEDVRKQGDLMKSAAGEFADDPCSSVKRGNMVRAARALLSAVTRLLILADMADVYKLLVQLKVVEDGILKLRNAGNEQDLGIQYKALKPEVDKLNIMAAKRQQELKDVGNRDQMAAARGILQKNVPILYTASQACLQHPDVAAYKANRDLIYKQLQQAVTGISNAAQATASDDAAQHQGGSGGELAYALNNFDKQIIVDPLSFSEERFRPSLEERLESIISGAALMADSSCTRDDRRERIVAECNAVRQALQDLLSEYMGNAGRKERSDALNSAIDKMTKKTRDLRRQLRKAVMDHVSDSFLETNVPLLVLIEAAKNGNEKEVKEYAQVFREHANKLIEVANLACSISNNEEGVKLVRMSASQLEALCPQVINAALALAAKPQSKLAQENMDLFKEQWEKQVRVLTDAVDDITSIDDFLAVSENHILEDVNKCVIALQEKDVDGLDRTAGAIRGRAARVIHVVTSEMDNYEPGVYTEKVLEATKLLSNTVMPRFTEQVEAAVEALSSDPAQPMDENEFIDASRLVYDGIRDIRKAVLMIRTPEELDDSDFETEDFDVRSRTSVQTEDDQLIAGQSARAIMAQLPQEQKAKIAEQVASFQEEKSKLDAEVSKWDDSGNDIIVLAKQMCMIMMEMTDFTRGKGPLKNTSDVISAAKKIAEAGSRMDKLGRTIADHCPDSACKQDLLAYLQRIALYCHQLNICSKVKAEVQNLGGELVVSGVDSAMSLIQAAKNLMNAVVQTVKASYVASTKYQKSQGMASLNLPAVSWKMKAPEKKPLVKREKQDETQTKIKRASQKKHVNPVQALSEFKAMDSI |  | stoichiometry N [1]: 2
M. musculus αT-catenin (wild type, full length) (natural protein, UniProt Q65CL1 1-895, looked up, Cloned into pGEX-TEV; cleaved from GST with tobacco etch virus protease; also called αT (testes)-catenin; WT αT-catenin; source: E. coli BL21(DE3), purified (glutathione-agarose, TEV cleavage, Mono Q, S200 gel filtration)) MSAETPITLNMDTQDLQIQTFTVEKLLEPLIIQVTTLVNCPQNPSNRKKGRSKRARVLLASVEEATWNLLDKGEMIAKEATVLKEELAAALQEVRKESKALKVSAERFTDDPCYLPKREAVVQAARALLAAVTRLLVLADMIDVMCLLQHVSSFQRTFESLKNVSNKSDLQRTYQKLGKELESLDYLAFKRQQDLKSPSQRDEIAGARATLKENSPLLHSICSACLEHSDVASLKASKDTVCEEIQNALDVISNASQGIQNAPAPPEPQAATLGSAFDELENLIVLNPLTVTEEDVRPSLEKRLEAIISGAALLADSSCTRDLHRERIIAECNAIRQALQDLLTEYMSNTGKTERSNTLNTAIVNMSKKTRDLRRQLRKAIIDHISDSFLDTTVPLLVLIEAAKNGRVKEIKDYAAIFHEHTGRLVEVANLACSMSTNEDGIKIVRIAANHLETLCPQIINAALALASRPKSQVVKNTMEMYKRTWEHYIHVLTEAVDDITSIDDFLAVSESHILEDVNKCIIALRDQDADNLDRAAGAIRGRAARVAHIVAGEMDSYEPGAYTEGVMRNVNFLTSTVIPEFVTQVNVALDALSKNSLTALDDNQFVDISKKIYDTIHDIRCSVMMIRTPEELEDVSDLEDDHEVRSHTSIQTEGKTDRAKMTQLPEAEKEKIAEQVADFKKVKSKLDAEIEIWDDTSNDIIVLAKKMCMIMMEMTDFTRGKGPLKHTTDVIYAAKMISESGSRMDVLARQIANQCPDPPCKQDLLAYLEQIKFYSHQLKICSQVKAEIQNLGGELIVSALDSVTSLIQAAKNLMNAVVQTVKMSYIASTKIIRIQSSAGPRHPVVMWRMKAPAKKPLIKREKPEETWAAVRRGSAKKKIHPVQVMSEFRGRQVY |  | stoichiometry N [2]: 1
M. musculus αT-catenin V94D (full length) (natural protein, UniProt Q65CL1 1-895, looked up, αT-catenin, Mus musculus, full length, with the ARVC-linked V94D change made by site-directed mutagenesis; here it was put into the mouse protein; also called V94D mutant; V94D homodimer; source: E. coli BL21(DE3), purified (glutathione-agarose, TEV cleavage, Mono Q, S200 gel filtration)) MSAETPITLNMDTQDLQIQTFTVEKLLEPLIIQVTTLVNCPQNPSNRKKGRSKRARVLLASVEEATWNLLDKGEMIAKEATVLKEELAAALQEDRKESKALKVSAERFTDDPCYLPKREAVVQAARALLAAVTRLLVLADMIDVMCLLQHVSSFQRTFESLKNVSNKSDLQRTYQKLGKELESLDYLAFKRQQDLKSPSQRDEIAGARATLKENSPLLHSICSACLEHSDVASLKASKDTVCEEIQNALDVISNASQGIQNAPAPPEPQAATLGSAFDELENLIVLNPLTVTEEDVRPSLEKRLEAIISGAALLADSSCTRDLHRERIIAECNAIRQALQDLLTEYMSNTGKTERSNTLNTAIVNMSKKTRDLRRQLRKAIIDHISDSFLDTTVPLLVLIEAAKNGRVKEIKDYAAIFHEHTGRLVEVANLACSMSTNEDGIKIVRIAANHLETLCPQIINAALALASRPKSQVVKNTMEMYKRTWEHYIHVLTEAVDDITSIDDFLAVSESHILEDVNKCIIALRDQDADNLDRAAGAIRGRAARVAHIVAGEMDSYEPGAYTEGVMRNVNFLTSTVIPEFVTQVNVALDALSKNSLTALDDNQFVDISKKIYDTIHDIRCSVMMIRTPEELEDVSDLEDDHEVRSHTSIQTEGKTDRAKMTQLPEAEKEKIAEQVADFKKVKSKLDAEIEIWDDTSNDIIVLAKKMCMIMMEMTDFTRGKGPLKHTTDVIYAAKMISESGSRMDVLARQIANQCPDPPCKQDLLAYLEQIKFYSHQLKICSQVKAEIQNLGGELIVSALDSVTSLIQAAKNLMNAVVQTVKMSYIASTKIIRIQSSAGPRHPVVMWRMKAPAKKPLIKREKPEETWAAVRRGSAKKKIHPVQVMSEFRGRQVY | 2 | 
αT-catenin V94D ΔABD (aa 1-659) (domain or fragment, M. musculus, UniProt Q65CL1 1-659, looked up, αT-catenin, Mus musculus, N-terminal head region aa 1-659 (ABD aa 660-895 deleted) with V94D; source: E. coli BL21(DE3), purified (glutathione-agarose, TEV cleavage, Mono Q, S200 gel filtration)) MSAETPITLNMDTQDLQIQTFTVEKLLEPLIIQVTTLVNCPQNPSNRKKGRSKRARVLLASVEEATWNLLDKGEMIAKEATVLKEELAAALQEDRKESKALKVSAERFTDDPCYLPKREAVVQAARALLAAVTRLLVLADMIDVMCLLQHVSSFQRTFESLKNVSNKSDLQRTYQKLGKELESLDYLAFKRQQDLKSPSQRDEIAGARATLKENSPLLHSICSACLEHSDVASLKASKDTVCEEIQNALDVISNASQGIQNAPAPPEPQAATLGSAFDELENLIVLNPLTVTEEDVRPSLEKRLEAIISGAALLADSSCTRDLHRERIIAECNAIRQALQDLLTEYMSNTGKTERSNTLNTAIVNMSKKTRDLRRQLRKAIIDHISDSFLDTTVPLLVLIEAAKNGRVKEIKDYAAIFHEHTGRLVEVANLACSMSTNEDGIKIVRIAANHLETLCPQIINAALALASRPKSQVVKNTMEMYKRTWEHYIHVLTEAVDDITSIDDFLAVSESHILEDVNKCIIALRDQDADNLDRAAGAIRGRAARVAHIVAGEMDSYEPGAYTEGVMRNVNFLTSTVIPEFVTQVNVALDALSKNSLTALDDNQFVDISKKIYDTIHDIRCSVMMIRTPEELEDVSDLEDDHEVRSHTSIQTEGKTDR | 2 | 
